In publication PMC2909962, “Integrin αvβ5 is a primary receptor for adenovirus in CAR-negative cells” (Virology Journal, 2010):

Biological target: Adenovirus Serotype 5, replication incompetent, E1A deleted, expressing GFP (Ad5-GFP), whole virus (human adenovirus serotype 5, UniProt P12538 1-571); P11818 1-581; P04133 1-952, Whole virion. Only the three major capsid proteins named in the paper are given, as wild type: penton base (5 at each of 12 vertices), fiber (trimer at each vertex), hexon (240 trimers; the paper prin)
Experiment: ELISA; cell-based: MDA-MB-435 cells in 96-well poly-D-lysine plates, incubated with whole Ad5 at varying concentrations for 18 hrs at 4°C, washed, fixed; bound virus detected with polyclonal rabbit anti-Ad5 and an ELISA amplification system; fit to the Langmuir binding isotherm
Conditions: one partner purified

B1: Integrin αvβ5 (receptor)
chain 1: FNLDVDSPAEYSGPEGSYFGFAVDFFVPSASSRMFLLVGAPKANTTQPGIVEGGQVLKCDWSSTRRCQPIEFDATGNRDYAKDDPLEFKSHQWFGASVRSKQDKILACAPLYHWRTEMKQEREPVGTCFLQDGTKTVEYAPCRSQDIDADGQGFCQGGFSIDFTKADRVLLGGPGSFYWQGQLISDQVAEIVSKYDPNVYSIKYNNQLATRTAQAIFDDSYLGYSVAVGDFNGDGIDDFVSGVPRAARTLGMVYIYDGKNMSSLYNFTGEQMAAYFGFSVAATDINGDDYADVFIGAPLFMDRGSDGKLQEVGQVSVSLQRASGDFQTTKLNGFEVFARFGSAIAPLGDLDQDGFNDIAIAAPYGGEDKKGIVYIFNGRSTGLNAVPSQILEGQWAARSMPPSFGYSMKGATDIDKNGYPDLIVGAFGVDRAILYRARPVITVNAGLEVYPSILNQDNKTCSLPGTALKVSCFNVRFCLKADGKGVLPRKLNFQVELLLDKLKQKGAIRRALFLYSRSPSHSKNMTISRGGLMQCEELIAYLRDESEFRDKLTPITIFMEYRLDYRTAADTTGLQPILNQFTPANISRQAHILLDCGEDNVCKPKLEVSVDSDQKKIYIGDDNPLTLIVKAQNQGEGAYEAELIVSIPLQADFIGVVRNNEALARLSCAFKTENQTRQVVCDLGNPMKAGTQLLAGLRFSVHQQSEMDTSVKFDLQIQSSNLFDKVSPVVSHKVDLAVLAAVEIRGVSSPDHVFLPIPNWEHKENPETEEDVGPVVQHIYELRNNGPSSFSKAMLHLQWPYKYNNNTLLYILHYDIDGPMNCTSDMEINPLRIKISSLQTTEKNDTVAGQGERDHLITKRDLALSEGDIHTLGCGVAQCLKIVCQVGRLDRGKSAILYVKSLLWTETFMNKENQNHSYSLKSSASFNVIEFPYKNLPIEDITNSTLVTTNVTWGIQPAPMPVPVWVIILAVLAGLLLLAVLVFVMYRMGFFKRVRPPQEEQEREQLQPHENGEGNSET
chain 2: GLNICTSGSATSCEECLLIHPKCAWCSKEDFGSPRSITSRCDLRANLVKNGCGGEIESPASSFHVLRSLPLSSKGSGSAGWDVIQMTPQEIAVNLRPGDKTTFQLQVRQVEDYPVDLYYLMDLSLSMKDDLDNIRSLGTKLAEEMRKLTSNFRLGFGSFVDKDISPFSYTAPRYQTNPCIGYKLFPNCVPSFGFRHLLPLTDRVDSFNEEVRKQRVSRNRDAPEGGFDAVLQAAVCKEKIGWRKDALHLLVFTTDDVPHIALDGKLGGLVQPHDGQCHLNEANEYTASNQMDYPSLALLGEKLAENNINLIFAVTKNHYMLYKNFTALIPGTTVEILDGDSKNIIQLIINAYNSIRSKVELSVWDQPEDLNLFFTATCQDGVSYPGQRKCEGLKIGDTASFEVSLEARSCPSRHTEHVFALRPVGFRDSLEVGVTYNCTCGCSVGLEPNSARCNGSGTYVCGLCECSPGYLGTRCECQDGENQSVYQNLCREAEGKPLCSGRGDCSCNQCSCFESEFGKIYGPFCECDNFSCARNKGVLCSGHGECHCGECKCHAGYIGDNCNCSTDISTCRGRDGQICSERGHCLCGQCQCTEPGAFGEMCEKCPTCPDACSTKRDCVECLLLHSGKPDNQTCHSLCRDEVITWVDTIVKDDQEAVLCFYKTAKDCVMMFTYVELPSGKSNLTVLREPECGNTPNAMTILLAVVGSILLVGLALLAIWKLLVTIHDRREFAKFQSERSRARYEMASNPLYRKPISTHTVDFTFNKFNKSYNGTVD
notes: integrin alpha-V subunit, human, endogenous on the surface of MDA-MB-435 and MCF7 cells; integrin beta-5 subunit, human, endogenous on the surface of MDA-MB-435 and MCF7 cells; no isolated integrin was used; source: endogenous, on MDA-MB-435 and MCF7 cells
Q: For B1, which Kd is on record?
A: 0.14 nM
